These results are taken from publication PMC7667886, “Who with whom: functional coordination of E2 enzymes by RING E3 ligases during poly‐ubiquitylation” (The EMBO Journal, 2020).

The target in experiment [1] is T1, Ubc7 containing only the catalytic cysteine (C89only = C39A/C141S) (yeast, UniProt Q02159 1-165, C39A | C141S).
T1 construct: Ubc7, yeast ERAD E2 enzyme, single-cysteine variant C39A/C141S; also called Ubc7(C89only)
T1 sequence (looked up): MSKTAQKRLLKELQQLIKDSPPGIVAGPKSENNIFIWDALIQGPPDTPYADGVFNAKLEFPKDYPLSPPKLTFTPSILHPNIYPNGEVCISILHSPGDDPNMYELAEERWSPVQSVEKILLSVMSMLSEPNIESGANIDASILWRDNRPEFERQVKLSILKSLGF
Kind of experiment: SEC; purified Ubc7 and U7BR mixed in a 1:2 ratio, complex purified on Superdex 75. To be noted: both partners purified. (SEC sorts molecules by how far they enter the pores of the column.)

Another experiment addresses T2, Ubc7(wt) (yeast, UniProt Q02159 1-165).
T2 construct: Ubc7, yeast ERAD E2 enzyme, wild type
T2 sequence (looked up): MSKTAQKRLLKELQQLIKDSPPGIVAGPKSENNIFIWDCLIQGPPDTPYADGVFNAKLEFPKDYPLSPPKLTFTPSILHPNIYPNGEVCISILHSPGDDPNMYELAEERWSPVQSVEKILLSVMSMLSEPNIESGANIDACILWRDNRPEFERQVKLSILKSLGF
The experiment is described as above. The following applies: both partners purified.

B1: U7BR domain of Cue1 (aa 150–203) (domain or fragment, yeast, UniProt P38428 150-203, looked up)
chain: NLLDKFHVDLNEDMSNLSFKDLDIEERKRLLVWQARKNLETKLQSDKDLQSLLT
notes: Treated on Ni-NTA with thrombin and GST-hSENP1, then washed and eluted with imidazole; source: E. coli BL21/DE3, purified (Ni-NTA, incubation with thrombin and GST-hSENP1, imidazole elution, Superdex 75)
For B1, the binding result (in experiment [1]; with Ubc7(wt)) was “binds” in each case.
